Values of other authors as cited in publication PMC2656448.

Target: Histone H3 (H3K4me0) (Homo sapiens) (UniProt P68431)

For AIRE PHD1 (from UniProt O43918), the Kd is listed as 5 µM.
